Where a chain is given by its changes, count along the chain named. In names and notes the source's numbering stands.
T1: RBMS1 (58-224) (Homo sapiens) (UniProt P29558)
T1 sequence: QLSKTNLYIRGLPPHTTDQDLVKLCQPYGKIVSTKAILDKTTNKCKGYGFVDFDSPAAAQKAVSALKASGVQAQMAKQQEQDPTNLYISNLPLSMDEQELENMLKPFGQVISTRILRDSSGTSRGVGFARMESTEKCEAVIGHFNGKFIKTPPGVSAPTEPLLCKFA

T2: RBMS1 (58-224) Q138E (Homo sapiens, UniProt P29558 62-223, Q138E)
T2 sequence: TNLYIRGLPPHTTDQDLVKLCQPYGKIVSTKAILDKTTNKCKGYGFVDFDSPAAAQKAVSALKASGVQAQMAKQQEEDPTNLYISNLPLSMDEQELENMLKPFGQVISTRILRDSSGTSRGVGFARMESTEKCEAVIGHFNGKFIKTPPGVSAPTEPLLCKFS

T3: RBMS1 (58-224) Y105S (Homo sapiens, UniProt P29558 62-223, Y105S)
T3 sequence: T2 sequence with Y44S, E77Q

T4: RBMS1 (58-224) F185V (Homo sapiens, UniProt P29558 62-223, F185V)
T4 sequence: T2 sequence with E77Q, F124V

T5: RBMS1 (58-224) F107L (Homo sapiens, UniProt P29558 62-223, F107L)
T5 sequence: T2 sequence with F46L, E77Q

T6: RBMS1 (58-224) (Homo sapiens, UniProt P29558 62-223)
T6 sequence: T2 sequence with E77Q

T7: RBMS1 RRM2 (Homo sapiens, UniProt P29558 138-224)
T7 sequence: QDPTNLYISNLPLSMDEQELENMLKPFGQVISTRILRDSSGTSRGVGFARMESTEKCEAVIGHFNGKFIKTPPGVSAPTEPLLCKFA

T8: RBMS1 (58-224) (Homo sapiens, UniProt P29558 58-224)
T8 sequence: T1 sequence

T9: RBMS1 RRM1 (Homo sapiens, UniProt P29558 58-137)
T9 sequence: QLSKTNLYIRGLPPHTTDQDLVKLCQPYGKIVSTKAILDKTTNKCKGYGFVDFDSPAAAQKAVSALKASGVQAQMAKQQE

T10: RBMS1 linker mutant Q135E/Q138E (Homo sapiens, UniProt P29558 58-224, Q135E)
T10 sequence: T1 sequence with Q78E

B1: TGGTATT (ssDNA)
DNA: TGGTATT
B2: TGGTTTT (ssDNA)
DNA: TGGTTTT
B3: TCTTATT (ssDNA)
DNA: TCTTATT
B4: TGTTATT (ssDNA)
DNA: TGTTATT
B5: TGGTGTT (ssDNA)
DNA: TGGTGTT
B6: TGGTACT (ssDNA)
DNA: TGGTACT
B7: TGGTAAT (ssDNA)
DNA: TGGTAAT
B8: TGGGATT (ssDNA)
DNA: TGGGATT
B9: TCGGATG (ssDNA)
DNA: TCGGATG
B10: TCCCATT (ssDNA)
DNA: TCCCATT
B11: TGGTCAT (ssDNA)
DNA: TGGTCAT
B12: TGCTATT (ssDNA)
DNA: TGCTATT
B13: GGTAAT (ssDNA)
DNA: GGTAAT
B14: TTTTT (ssDNA)
DNA: TTTTT
B15: TCGTATT (ssDNA)
DNA: TCGTATT
B16: GTTAT (ssDNA)
DNA: GTTAT
B17: CTTTA (ssDNA)
DNA: CTTTA
B18: TTAT (ssDNA)
DNA: TTAT
B19: GTAT (ssDNA)
DNA: GTAT
B20: ATAT (ssDNA)
DNA: ATAT
B21: TCATATT (ssDNA)
DNA: TCATATT
B22: TCTTATG (ssDNA)
DNA: TCTTATG
B23: TATAATT (ssDNA)
DNA: TATAATT
B24: TGGAATT (ssDNA)
DNA: TGGAATT
B25: TGGTATC (ssDNA)
DNA: TGGTATC
B26: c-myc consensus TCTTATT (ssDNA)
DNA: TCTTATT
B27: TGTTATT (C2G) (ssDNA)
DNA: TGTTATT

Each molecule was assayed against T1, RBMS1 (58-224) (Homo sapiens) (assay: ITC). Details: ITC: 20 mM sodium phosphate pH 7.1, 50 mM NaCl, 303 K, 0.1 mM protein in cell, 1-1.5 mM DNA in syringe; NMR: 20 mM sodium phosphate pH 7.1, 100 mM NaCl, 5% D2O.

Question: For c-myc 21 bp promoter sequence, which Kd is on record?
Answer: 2.6 µM

What follows are molecules tested against T2, RBMS1 (58-224) Q138E (assay: ITC; 20 mM sodium phosphate pH 7.1, 50 mM NaCl, 303 K (30 C); 0.1 mM protein in cell, 1-1.5 mM DNA in syringe). Details: protein: recombinant; tags: N-term GAMG left after TEV cleavage of 6xHis.

Question: For B1, which Kd is on record?
Answer: 17.6 µM

Question: B2 was tested. Which Kd did it give?
Answer: 18.1 µM

Question: With B3 as the molecule, how does the Kd read?
Answer: 13.9 µM

The molecules below were run against T3, RBMS1 (58-224) Y105S in the same assay as above. Details: protein: recombinant; tags: N-term GAMG left after TEV cleavage of 6xHis.

Question: For B1, which Kd is on record?
Answer: 151 µM

Question: With B2 as the molecule, how does the Kd read?
Answer: 418 µM

Question: Does B3 bind?
Answer: no binding

These molecules were tested against T4, RBMS1 (58-224) F185V in the same assay as above. Details: protein: recombinant; tags: N-term GAMG left after TEV cleavage of 6xHis.

Question: How did the Kd turn out when B1 was run?
Answer: 23.2 µM

Question: With B2 as the molecule, how does the Kd read?
Answer: 22 µM

Question: With B3 as the molecule, how does the Kd read?
Answer: 6.02 µM

These molecules were tested against T5, RBMS1 (58-224) F107L in the same assay as above. Details: protein: recombinant; tags: N-term GAMG left after TEV cleavage of 6xHis.

Question: With B1 as the molecule, how does the Kd read?
Answer: 182 µM

Question: With B2 as the molecule, how does the Kd read?
Answer: 83.3 µM

Question: Which Kd does the source give for B3 here?
Answer: 142 µM

These molecules were tested against T6, RBMS1 (58-224) in the same assay as above. Details: protein: recombinant; tags: N-term GAMG left after TEV cleavage of 6xHis.

Question: With B1 as the molecule, how does the Kd read?
Answer: 6.7 µM

Question: With B2 as the molecule, how does the Kd read?
Answer: 4.04 µM

Question: With B3 as the molecule, how does the Kd read?
Answer: 3.84 µM

Question: Which Kd does the source give for B4 here?
Answer: 15.2 µM

Question: For B5, which Kd is on record?
Answer: 16.1 µM

Question: B6 was tested. Which Kd did it give?
Answer: 15.9 µM

Question: B7 was tested. Which Kd did it give?
Answer: 9.6 µM

Question: With B8 as the molecule, how does the Kd read?
Answer: 36.4 µM

Question: B9 was tested. Which Kd did it give?
Answer: 35.5 µM

Question: With B10 as the molecule, how does the Kd read?
Answer: 8.2 µM

Question: How did the Kd turn out when B11 was run?
Answer: 17.5 µM

Question: How did the Kd turn out when B12 was run?
Answer: 8.69 µM

Question: Which Kd does the source give for B13 here?
Answer: 14.9 µM

Question: For B14, which Kd is on record?
Answer: 79.4 µM

Question: B15 was tested. Which Kd did it give?
Answer: 7.7 µM

Question: Which Kd does the source give for B16 here?
Answer: 81.3 µM

Question: B17 was tested. Which Kd did it give?
Answer: 55.5 µM

Question: Does B18 bind?
Answer: no binding

Question: Does B19 bind?
Answer: no binding

Question: Does B20 bind?
Answer: no binding

Question: With B21 as the molecule, how does the Kd read?
Answer: 11.9 µM

Question: With B22 as the molecule, how does the Kd read?
Answer: 19.3 µM

Question: With B23 as the molecule, how does the Kd read?
Answer: 37 µM

Question: For B24, which Kd is on record?
Answer: 21 µM

Question: Which Kd does the source give for B25 here?
Answer: 6.2 µM

The molecules below were run against T7, RBMS1 RRM2 (assay: ITC; ITC: 20 mM sodium phosphate pH 7.1, 50 mM NaCl, 303 K, 0.1 mM protein in cell, 1-1.5 mM DNA in syringe; NMR: 20 mM sodium phosphate pH 7.1, 100 mM NaCl, 5% D2O). Details: protein: recombinant; tags: 6xHis removed by TEV; single strand.

Question: Does B1 bind?
Answer: no binding

Question: Does B2 bind?
Answer: no binding

What follows are molecules tested against T8, RBMS1 (58-224) in the same assay as above. Details: protein: recombinant; tags: N-term GAMG left after TEV cleavage of 6xHis; single strand.

Question: How did the Kd turn out when B26 was run?
Answer: 3.84 µM

Question: With B27 as the molecule, how does the Kd read?
Answer: 15.2 µM

The molecules below were run against T9, RBMS1 RRM1 in the same assay as above. Details: protein: recombinant; tags: 6xHis removed by TEV; single strand.

Question: How did the Kd turn out when B26 was run?
Answer: 55.2 µM

Target: T9, RBMS1 RRM1
Assay: as above
Details: protein: recombinant; tags: 6xHis removed by TEV; single strand
Remark: another data set of the same source

Question: With B1 as the molecule, how does the binding signal read?
Answer: 10 fold lower affinity than RBMS1 58-224

These molecules were tested against T10, RBMS1 linker mutant Q135E/Q138E in the same assay as above. Details: protein: recombinant; tags: 6xHis removed by TEV; single strand.

Question: How did the binding signal turn out when B26 was run?
Answer: 10 fold lower binding than wild type
